Data: patent US20030207791A1, “Materials and methods relating to the treatment of leukaemias” (priority 2000, published 2003)

What was measured:
[1] = system: RARE-G5-TATA reporter (GAL4-VP16 driven transcription); test: Transcriptional repression of GAL4-VP16 activation, RARE-G5-TATA reporter, transfected HeLa cells; type: cell-based
Experimental: FIG. 2. Role of the coiled coil of PML in the altered transcriptional properties of PML-RAR (A): Transcriptional repression by RAR and fusion proteins. Hela cells were co-transfected with the RARE-G5-TATA reporter in the absence (C) or presence of increasing amounts (50, 100, 250, 1000 ng) of the indicated expression vectors and then harvested 48 hours after transfection. Levels of expression of RAR and fusion proteins after transfection are shown in (C). (B) RARE and NCoR dependent transcriptional repression by RAR and fusion proteins. Hela cells were co-transfected with the RARE-G5-TATA or the G5-TATA, reporters and 1 μg of control expression vector (C), RAR (R), PML-RAR (P/R) and their respective AHT derivatives, as indicated. (D) RA sensitivity of RAR and fusion proteins. Cells were co-transfected with 500 ng of the indicated expression vectors. 24 hours after transfection, RA was added at the following concentrations: 1, 10, 100 nM, 1, 10 μM, and cells were harvested after additional 24 hours.
To test this hypothesis, the inventors devised an artificial, reporter system to measure transcriptional repression by RAR and chimeric proteins. The RARE-G5-TATA reporter construct has five GAL4 response elements fused to a minimal promoter region: upstream of the GAL4 sites, a RA responsive element (RARE) allows binding of RAR (or fusion proteins). […] RAR over-expression led to decrease of GAL4-VP16 activation, with 30-40% repression observed with the maximal amount of co-transfected RAR expression vector (1 μg, FIG. 2A), while it exerted no effect on the GAL4-VP16-mediated activation of a cognate promoter lacking the RARE (FIG. 2B). A RAR construct carrying the AHT mutation, which abrogates NCoR binding (Horlein et al., 1995), was unable to prevent activation of the RARE-G5-TATA promoter by GAL4-VP16 (FIG. 2B).
Next, the inventors tested the transcriptional regulatory functions of PML-RAR (or derivatives). […] At the maximal concentration tested (1 μg), the inventors observed 80-90% repression with PML-RAR and 30-40% with RAR (FIG. 2A).
Transient transfection of HeLa, NIH 3T3, SAOS and C33A cells was performed by calcium phosphate as described (Lillie and Green, 1989; Minucci et al., 1994). p53-/- MEFs were transiently transfected by lipofection as described (Pearson et al., 2000). Light units were normalized to expression of a co-transfected β-galactosidase expression plasmid. Results are presented as the mean+standard deviations of at least three independent experiments.

GST-NCoR = target: T1, GST-NCoR (Mus musculus, UniProt Q60974); test: GST-NCoR pull-down assay with in vitro translated 35S labelled proteins; type: binding
T1 construct: made in house
T1 sequence (Q60974 1782-2453): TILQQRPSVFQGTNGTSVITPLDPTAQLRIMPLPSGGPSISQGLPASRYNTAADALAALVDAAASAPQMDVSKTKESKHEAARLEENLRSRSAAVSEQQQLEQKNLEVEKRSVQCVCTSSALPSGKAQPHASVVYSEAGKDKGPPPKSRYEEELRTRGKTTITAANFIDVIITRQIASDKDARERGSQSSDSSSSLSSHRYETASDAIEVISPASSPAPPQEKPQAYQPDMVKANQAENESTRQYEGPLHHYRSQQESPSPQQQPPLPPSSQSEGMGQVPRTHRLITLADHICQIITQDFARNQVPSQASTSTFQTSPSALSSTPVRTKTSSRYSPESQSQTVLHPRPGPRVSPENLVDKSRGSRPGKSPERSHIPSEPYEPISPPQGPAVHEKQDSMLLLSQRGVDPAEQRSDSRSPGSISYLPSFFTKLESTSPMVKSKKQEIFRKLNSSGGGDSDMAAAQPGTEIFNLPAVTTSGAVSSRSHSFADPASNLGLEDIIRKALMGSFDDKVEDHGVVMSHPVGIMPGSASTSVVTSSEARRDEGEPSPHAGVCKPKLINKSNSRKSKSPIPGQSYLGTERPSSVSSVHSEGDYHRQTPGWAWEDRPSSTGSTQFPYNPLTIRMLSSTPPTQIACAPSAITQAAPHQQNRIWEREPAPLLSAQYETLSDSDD
Experimental: FIG. 1. Enhanced recruitment of NCoR by PML-RAR is due to the coiled coil region of PML. Increasing amounts of GST -NCoR (from 150 ng to 10 μg) coupled to agarose beads were incubated with the indicated in vitro translated, ^35-S labelled proteins. On the left, a schematic representation of the in vitro translated products, with the tripartite motif of PML highlighted (R, RING finger; B, B boxes; CC, coiled coil). The input lanes are loaded with the same amounts used in the pull-down experiments.
Recruitment of the NCoR-HDAC complex is crucial for the transforming potential of PML-RAR. At low concentrations of RA (1-100 nM), the stability of the PML-RAR-NCoR complex is higher than that of the RAR-NCoR complex (Grignani et al., 1998; He et al., 1998; Lin et al., 1998). […] Pull-down assays were performed by incubation of in vitro translated, ^35S labelled PML-RAR or RAR with GST-NCoR coupled to agarose beads.
GST-NCoR (1782-2453) or GST-NCoR (RDIII) purification and in vitro interaction experiments were performed as described, incubating the indicated amounts of GST-NCoR attached to a constant amount of glutathione-agarose beads in the presence of the appropriate ^35-S labelled, in vitro translated proteins(Gelmetti et al., 1998; Grignani et al., 1998; Zamir et al., 1996). The input lanes represent 100% of the total. Coimmunoprecipitation experiments were performed as described(Gelmetti et al., 1998), using extracts from transiently transfected COS-1 cells, or in vitro translated products.

[2] = system: U937 cells expressing PML-RAR under the control of an inducible promoter; test: Differentiation (CD14) of U937 cells with inducible PML-RAR treated with vitamin D and TGFβ; type: cell-based; conditions: for differentiated, CD14+ cells: cells expressing the coiled coil of PML, vitamin D and TGFβ
Description: The cells were either uninduced (ctr column), or induced to express PML-RAR (PML-RAR column). Cells were transduced with retroviral vectors encoding the coiled coil of PML (RBCC) and GFP as a marker, or with retroviral vectors encoding GFP alone as a control (control). […] In cells expressing the coiled coil of PML (gated in the cytofluorimetric analysis based on the positivity for the GFP marker), PML-RAR was unable to block efficiently differentiation (from 90% to 70%). Levels of expression of PML-RAR were unchanged by expressing the coiled coil region of PML.
RAR oligomerization through the coiled coil region of PML is required for its leukemogenic activity, and deletion of the PML coiled coil is sufficient to lead to loss of oncogenic potential (Minucci et al., 2000). Small molecule compounds able to disrupt PML-RAR oligomers would therefore be able to revert the leukemic phenotype.

B1: RAR: retinoic acid receptor α, wild type (protein)
chain: MASNSSSCPTPGGGHLNGYPVPPYAFFFPPMLGGLSPPGALTTLQHQLPVSGYSTPSPATIETQSSSSEEIVPSPPSPPPLPRIYKPCFVCQDKSSGYHYGVSACEGCKGFFRRSIQKNMVYTCHRDKNCIINKVTRNRCQYCRLQKCFEVGMSKESVRNDRNKKKKEVPKPECSESYTLTPEVGELIEKVRKAHQETFPALCQLGKYTTNNSSEQRVSLDIDLWDKFSELSTKCIIKTVEFAKQLPGFTTLTIADQITLLKAACLDILILRICTRYTPEQDTMTFSDGLTLNRTQMHNAGFGPLTDLVFAFANQLLPLEMDDAETGLLSAICLICGDRQDLEQPDRVDMLQEPLLEALKVYVRKRRPSRPHMFPKMLMKITDLRSISAKGAERVITLKMEIPGSMPPLIQEMLENSEGLDTLSGQPGGGGRDGGGLAPPPGSCSPSLSPSSNRSSPATHSP
- amount of expression vector necessary to measure significant transcriptional repression [1]: at least 250 ng
- repression of GAL4-VP16 activation ([1]; maximal amount of expression vector, 1 μg): 30-40%
- higher amounts of GST-NCoR required to obtain significant binding, compared with PML-RAR (GST-NCoR; GST-NCoR 150 ng to 10 μg): 15-30 fold

B2: coiled coil of PML: coiled coil of PML including the additional amino-terminal region, expressed from retroviral vector (protein)
chain: MEPAPARSPRPQQDPARPQEPTMPPPETPSEGRQPSPSPSPTERAPASEEEFQFLRCQQCQAEAKCPKLLPCLHTLCSGCLEASGMQCPICQAPWPLGADTPALDNVFFESLQRRLSVYRQIVDAQAVCTRCKESADFWCFECEQLLCAKCFEAHQWFLKHEARPLAELRNQSVREFLDGTRKTNNIFCSNPNHRTPTLTSIYCRGCSKPLCCSCALLDSSHSELKCDISAEIQQRQEELDAMTQALQEQDSAFGAVHAQMHAAVGQLGRARAETEELIRERVRQVVAHVRAQERELLEAVDARYQRDYEEMASRLGRLDAVLQRIRTGSALVQRMKCYASDQEVLDMHGFLRQALCRLR
- differentiated, CD14+ cells ([2]; PML-RAR induced): 70%
- toxicity ([2]; uninduced cells): did not notice appreciable toxicity
- differentiated, CD14+ cells ([2]; uninduced): 90%

B3: CC-RAR: fusion of the coiled coil region of PML to RAR (protein)
chain: SELKCDISAEIQQRQEELDAMTQALQALQEQDSAEGAVHAQMHAAVGQLGRARAETEELIRERVRQVVAHVRAQERELLEAVDARYQRDYEEMASRLGRLDAVLQRIRTGSALVQRMKCYASDQEVLDMHGFLRQALCRLRMASNSSSCPTPGGGHLNGYPVPPYAFFFPPMLGGLSPPGALTTLQHQLPVSGYSTPSPATIETQSSSSEEIVPSPPSPPPLPRIYKPCFVCQDKSSGYHYGVSACEGCKGFFRRSIQKNMVYTCHRDKNCIINKVTRNRCQYCRLQKCFEVGMSKESVRNDRNKKKKEVPKPECSESYTLTPEVGELIEKVRKAHQETFPALCQLGKYTTNNSSEQRVSLDIDLWDKFSELSTKCIIKTVEFAKQLPGFTTLTIADQITLLKAACLDILILRICTRYTPEQDTMTFSDGLTLNRTQMHNAGFGPLTDLVFAFANQLLPLEMDDAETGLLSAICLICGDRQDLEQPDRVDMLQEPLLEALKVYVRKRRPSRPHMFPKMLMKITDLRSISAKGAERVITLKMEIPGSMPPLIQEMLENSEGLDTLSGQPGGGGRDGGGLAPPPGSCSPSLSPSSNRSSPATHSP
- capacity to repress GAL4-VP16 driven transcription [1]: as strongly as PML-RAR
- binding to GST-NCoR (GST-NCoR; increasing amounts of GST-NCoR): same characteristics of binding as PML-RAR
